Data set [1] deals with T1, hnRNPG wild-type (Homo sapiens, UniProt P38159 1-391). In words: spin-down.
Data set [2] addresses hnRNPG RRMmut (Homo sapiens, UniProt P38159 1-391, K9A;F11A;R49A;F51A;F53A). In words: limited proteolysis protection.
For data set [3], the target named is T1, hnRNPG wild-type. In words: limited proteolysis protection.

T1 sequence (P38159 whole entry): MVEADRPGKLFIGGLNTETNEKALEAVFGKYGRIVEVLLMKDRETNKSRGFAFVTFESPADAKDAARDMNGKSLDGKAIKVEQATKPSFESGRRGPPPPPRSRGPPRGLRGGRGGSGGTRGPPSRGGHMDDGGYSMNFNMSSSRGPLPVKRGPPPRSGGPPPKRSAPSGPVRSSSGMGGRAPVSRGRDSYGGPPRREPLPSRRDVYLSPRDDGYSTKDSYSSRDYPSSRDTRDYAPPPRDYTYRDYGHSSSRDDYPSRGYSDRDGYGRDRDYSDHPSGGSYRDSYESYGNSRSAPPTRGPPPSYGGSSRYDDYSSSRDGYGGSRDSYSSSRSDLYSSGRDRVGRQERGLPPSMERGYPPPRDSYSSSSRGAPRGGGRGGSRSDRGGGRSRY
Chain of hnRNPG RRMmut (P38159 whole entry K9A/F11A/R49A/F51A/F53A): as the sequence (P38159 whole entry) above, with K9A, F11A, R49A, F51A, F53A counted along it

On to AAUGUGAAGGACUUUCGUAACGGAAGUAAUUCAA (structured_RNA) [MALAT1 hairpin 2515-A], for which the binding result in data set [1] is listed as “binds”; in data set [2] it was “no binding”.
For AAUGUGAAGGACUUUCGUAACGGAAGUAAUUCAA (structured_RNA, m6A at position 11) [MALAT1 hairpin 2515-m6A], in that order: “binds” and “no binding”.
For GGGUACGACGGAUAUCGUGGGGGGGGAAAUUGCUUUCGGUUCCGACUCUG (structured_RNA) [WEc RNA], the binding result in data set [3] was “binds”; in data set [2], “no binding”.

B1: SMN2exon7 RNA (ssRNA)
RNA: GGUUUUAGACAAAAUCAAAAAGAAGGAAGGUGCUCACAUUCCUUAAAUUAAGGA
Turning to B1, the binding result in data set [3] is given as “binds”; in data set [2], “no binding”.

Source of the values: paper PMC6778029.
